Experimental data reported in patent publication US20120178697A9.

Target: PDZ domain (residues 247 through 341) of mouse Dvl-1 (mouse) (UniProt P51141)
Assay: method not stated; called 'experimental data', at 25° C

Kd: 10 µM
Substance: Dapper peptide
